In patent US20200002405A1 (ADMINISTRATORS OF THE TULANE EDUCATIONAL FUND, published 2020):

T1: LASV Josiah (lineage IV) glycoprotein, full-length GP (Lassa virus, Josiah strain, UniProt P08669 2-491)
T1 sequence: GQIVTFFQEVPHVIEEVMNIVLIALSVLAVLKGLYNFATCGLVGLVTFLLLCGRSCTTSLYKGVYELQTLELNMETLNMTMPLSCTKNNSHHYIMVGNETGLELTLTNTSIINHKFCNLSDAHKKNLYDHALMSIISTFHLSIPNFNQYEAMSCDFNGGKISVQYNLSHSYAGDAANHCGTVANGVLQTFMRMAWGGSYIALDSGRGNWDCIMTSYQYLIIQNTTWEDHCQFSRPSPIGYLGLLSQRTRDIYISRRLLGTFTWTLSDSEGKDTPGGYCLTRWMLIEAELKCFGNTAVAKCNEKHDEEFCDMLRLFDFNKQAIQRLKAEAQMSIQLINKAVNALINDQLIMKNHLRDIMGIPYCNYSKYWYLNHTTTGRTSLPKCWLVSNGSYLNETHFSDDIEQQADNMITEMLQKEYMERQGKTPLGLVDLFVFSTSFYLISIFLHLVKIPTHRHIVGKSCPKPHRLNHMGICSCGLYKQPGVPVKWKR

T2: LCMV WE strain GP (LCMV, WE strain, UniProt P07399 2-498)
T2 construct: whole, on cells
T2 sequence: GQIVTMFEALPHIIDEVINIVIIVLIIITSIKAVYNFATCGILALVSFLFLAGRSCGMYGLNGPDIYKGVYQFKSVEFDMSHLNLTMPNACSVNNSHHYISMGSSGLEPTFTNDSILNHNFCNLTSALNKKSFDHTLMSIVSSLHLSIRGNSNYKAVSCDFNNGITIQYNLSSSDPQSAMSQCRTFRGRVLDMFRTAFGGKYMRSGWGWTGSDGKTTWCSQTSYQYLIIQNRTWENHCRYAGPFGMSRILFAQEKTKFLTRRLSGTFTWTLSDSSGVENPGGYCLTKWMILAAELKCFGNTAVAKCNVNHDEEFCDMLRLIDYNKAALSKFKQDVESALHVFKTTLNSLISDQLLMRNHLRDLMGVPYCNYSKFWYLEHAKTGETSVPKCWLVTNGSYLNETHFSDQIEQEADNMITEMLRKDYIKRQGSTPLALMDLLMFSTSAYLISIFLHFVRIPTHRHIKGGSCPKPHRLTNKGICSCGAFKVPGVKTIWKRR

B1: 37.7H (antibody, V domains shown)
VH: EVQLVQSGGGLVKAGGSLRLSCAASGFTFSTYSMNWIRQAPGKGLEWVASISSRSGSHINYVDSVKGRFTISRDNARDLLYLQMNSLRVDDSALYYCARDRRSGTSPLPLDVWGQGTTVTVFS
VL: DQSALTQPASVSGSPGQSITISCTGTGSDIGGYNFVSWYQQYPGKAPKLIIYEVRIRASGVSNRFSGSKSGNTASLTISGLQAEDEADYYCNSYSIHSPWVFGGGTKLTVLR
B2: 37.2G (antibody, V domains shown)
VH: EVQLVESGGGLVKPGGSRRLSCAASGFTFSRDTMTWVRQAPGKGLEWVASISSGSSDINYADSVKGRFTISRDNGKNSLYLHMNSLRADDTAIYYCARDPRSGISGRYGMDVWGQGTTVTVSS
VL: DIVLTQSPGTLSLSPGERATLSCRASQSVNSIFLAWYQQKPGQAPRLLIYGASSRATGIPDRFSGSGSGTDFTLTISRLEPEDFAVYYCQQYHSSPKLTFGGGTKVEIKR
B3: 37.2D (antibody, V domains shown)
VH: EVQLVQSGAEVKKPGASVKVSCKASGYTFTKYGISWVRQAPGQGLEWMGWISAFNGYTRYGQRFQGKVTMTTDTSTNTASLEVRTLTSNDTAVYYCARQYPDQYSSSGWPRLFAMDVWGQGTTVIVSP
VL: ETTLTQSPATLSVSPGETATLSCRASQNVINNLAWYQQKPGQAPRLLIYGASTRATGIPARFSGSGSGTEFTLTISSMQSEDFAVYYCQQYNDWPRSFGQGTRLDIRR

Target: T1, LASV Josiah (lineage IV) glycoprotein, …
Test: cell-based or functional assay

Binder | IC50 (neutralization) [µg/mL] | IC80 (neutralization) [µg/mL]
B1 | 0.191 | 0.532
B2 | 5.6 | 16
B3 | 0.559 | 1.98

Target: LASV 237 (lineage III) glycoprotein (Lassa virus, strain 237)
Test: cell-based or functional assay

Binder | IC50 (neutralization) [µg/mL] | IC80 (neutralization) [µg/mL]
B1 | 0.077 | 0.202
B2 | 2.02 | 5.23
B3 | 0.256 | 0.844

Target: LASV A19 (lineage II) glycoprotein (Lassa virus, strain A19)
Test: cell-based or functional assay

Binder | IC50 (neutralization) [µg/mL] | IC80 (neutralization) [µg/mL]
B1 | 0.255 | 0.537
B2 | 1.1 | 10
B3 | 0.469 | 1.15

Target: LASV Pinneo (lineage I) glycoprotein (Lassa virus, strain Pinneo)
Test: cell-based or functional assay

Binder | IC50 (neutralization) [µg/mL] | IC80 (neutralization) [µg/mL]
B1 | 0.301 | 1.66
B2 | > 20 | > 20
B3 | 0.537 | 1.86

Target: T1, LASV Josiah (lineage IV) glycoprotein, …
Test: cell-based or functional assay
Remark: another data set of the same source

Binder | IC50 (neutralization) [µg/mL] | IC80 (neutralization) [µg/mL]
B1 | 0.134 | 0.214
B2 | 0.405 | 1.78
B3 | 0.137 | 0.26

Target: T2, LCMV WE strain GP
Test: cross-reactivity, immunofluorescence on GP-transfected 293T cells

Binder | binding result
B1 | binds
B2 | binds
B3 | binds
